B1: 14-3-3 protein sigma (Homo sapiens), P31947 (parent)
chain: MERASLIQKAKLAEQAERYEDMAAFMKGAVEKGEELSCEERNLLSVAYKNVVGGQRAAWRVLSSIEQKSNEEGSEEKGPEVREYREKVETELQGVCDTVLGLLDSHLIKEAGDAESRVFYLKMKGDYYRYLAEVATGDDKKRIIDSARSAYQEAMDISKKEMPPTNPIRLGLALNFSVFHYEIANSPEEAISLAKTTFDEAMADLHTLSEDSYKDSTLIMQLLRDNLTLWTADNAGEEGGEAPQEPQS
partner: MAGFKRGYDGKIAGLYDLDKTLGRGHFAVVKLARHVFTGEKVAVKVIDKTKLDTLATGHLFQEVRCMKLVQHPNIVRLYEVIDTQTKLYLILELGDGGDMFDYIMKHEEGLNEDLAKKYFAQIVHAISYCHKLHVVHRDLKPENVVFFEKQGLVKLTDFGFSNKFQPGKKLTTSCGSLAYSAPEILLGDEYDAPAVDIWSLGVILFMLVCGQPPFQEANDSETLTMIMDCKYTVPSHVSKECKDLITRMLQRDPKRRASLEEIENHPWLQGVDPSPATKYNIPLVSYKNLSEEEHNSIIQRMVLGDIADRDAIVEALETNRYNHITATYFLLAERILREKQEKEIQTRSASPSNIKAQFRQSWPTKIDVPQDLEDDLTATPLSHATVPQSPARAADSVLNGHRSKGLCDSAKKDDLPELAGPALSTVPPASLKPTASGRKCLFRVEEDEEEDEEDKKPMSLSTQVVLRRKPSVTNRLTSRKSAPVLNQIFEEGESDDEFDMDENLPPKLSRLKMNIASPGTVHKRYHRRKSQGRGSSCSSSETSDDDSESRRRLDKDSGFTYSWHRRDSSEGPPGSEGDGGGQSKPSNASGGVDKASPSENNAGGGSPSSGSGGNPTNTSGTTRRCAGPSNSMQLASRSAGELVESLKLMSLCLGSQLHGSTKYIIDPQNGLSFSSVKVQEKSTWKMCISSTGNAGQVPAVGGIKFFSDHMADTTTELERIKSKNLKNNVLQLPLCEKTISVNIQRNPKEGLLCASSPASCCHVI
B2: 14-3-3 protein sigma (Homo sapiens), P31947 (parent)
chain: B1 chain
partner: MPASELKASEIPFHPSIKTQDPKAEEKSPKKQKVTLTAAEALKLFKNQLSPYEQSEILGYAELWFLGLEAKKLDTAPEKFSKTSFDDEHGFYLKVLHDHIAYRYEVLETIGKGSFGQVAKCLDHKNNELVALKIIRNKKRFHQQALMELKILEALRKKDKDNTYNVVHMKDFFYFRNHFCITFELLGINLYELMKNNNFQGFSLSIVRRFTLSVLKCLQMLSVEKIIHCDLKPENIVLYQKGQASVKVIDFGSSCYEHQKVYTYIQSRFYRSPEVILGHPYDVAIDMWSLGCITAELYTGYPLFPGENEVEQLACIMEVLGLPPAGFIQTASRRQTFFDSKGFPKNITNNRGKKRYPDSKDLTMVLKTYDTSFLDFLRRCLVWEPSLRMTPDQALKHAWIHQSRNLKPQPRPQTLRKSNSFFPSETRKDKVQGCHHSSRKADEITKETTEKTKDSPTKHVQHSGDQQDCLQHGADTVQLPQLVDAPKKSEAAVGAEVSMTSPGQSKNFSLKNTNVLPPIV
B3: 14-3-3 protein sigma (Homo sapiens), P31947 (parent)
chain: B1 chain
partner: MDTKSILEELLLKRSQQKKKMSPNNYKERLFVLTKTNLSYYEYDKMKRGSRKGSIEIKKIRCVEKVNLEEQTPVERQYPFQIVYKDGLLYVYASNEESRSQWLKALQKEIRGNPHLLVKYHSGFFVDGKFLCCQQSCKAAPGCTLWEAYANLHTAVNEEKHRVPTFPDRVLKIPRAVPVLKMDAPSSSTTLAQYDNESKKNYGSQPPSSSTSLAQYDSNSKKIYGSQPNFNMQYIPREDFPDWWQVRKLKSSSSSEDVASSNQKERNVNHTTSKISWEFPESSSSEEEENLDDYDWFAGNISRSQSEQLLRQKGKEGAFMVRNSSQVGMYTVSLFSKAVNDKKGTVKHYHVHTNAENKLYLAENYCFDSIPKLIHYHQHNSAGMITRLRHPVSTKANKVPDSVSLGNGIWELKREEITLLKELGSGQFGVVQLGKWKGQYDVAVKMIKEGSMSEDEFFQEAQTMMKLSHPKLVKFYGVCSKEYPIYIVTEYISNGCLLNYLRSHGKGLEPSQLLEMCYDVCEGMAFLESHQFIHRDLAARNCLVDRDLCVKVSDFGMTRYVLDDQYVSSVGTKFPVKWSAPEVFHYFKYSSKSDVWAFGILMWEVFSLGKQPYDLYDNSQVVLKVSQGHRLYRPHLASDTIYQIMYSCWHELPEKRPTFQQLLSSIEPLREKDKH
B4: 14-3-3 protein sigma (Homo sapiens), P31947 (parent)
chain: B1 chain
partner: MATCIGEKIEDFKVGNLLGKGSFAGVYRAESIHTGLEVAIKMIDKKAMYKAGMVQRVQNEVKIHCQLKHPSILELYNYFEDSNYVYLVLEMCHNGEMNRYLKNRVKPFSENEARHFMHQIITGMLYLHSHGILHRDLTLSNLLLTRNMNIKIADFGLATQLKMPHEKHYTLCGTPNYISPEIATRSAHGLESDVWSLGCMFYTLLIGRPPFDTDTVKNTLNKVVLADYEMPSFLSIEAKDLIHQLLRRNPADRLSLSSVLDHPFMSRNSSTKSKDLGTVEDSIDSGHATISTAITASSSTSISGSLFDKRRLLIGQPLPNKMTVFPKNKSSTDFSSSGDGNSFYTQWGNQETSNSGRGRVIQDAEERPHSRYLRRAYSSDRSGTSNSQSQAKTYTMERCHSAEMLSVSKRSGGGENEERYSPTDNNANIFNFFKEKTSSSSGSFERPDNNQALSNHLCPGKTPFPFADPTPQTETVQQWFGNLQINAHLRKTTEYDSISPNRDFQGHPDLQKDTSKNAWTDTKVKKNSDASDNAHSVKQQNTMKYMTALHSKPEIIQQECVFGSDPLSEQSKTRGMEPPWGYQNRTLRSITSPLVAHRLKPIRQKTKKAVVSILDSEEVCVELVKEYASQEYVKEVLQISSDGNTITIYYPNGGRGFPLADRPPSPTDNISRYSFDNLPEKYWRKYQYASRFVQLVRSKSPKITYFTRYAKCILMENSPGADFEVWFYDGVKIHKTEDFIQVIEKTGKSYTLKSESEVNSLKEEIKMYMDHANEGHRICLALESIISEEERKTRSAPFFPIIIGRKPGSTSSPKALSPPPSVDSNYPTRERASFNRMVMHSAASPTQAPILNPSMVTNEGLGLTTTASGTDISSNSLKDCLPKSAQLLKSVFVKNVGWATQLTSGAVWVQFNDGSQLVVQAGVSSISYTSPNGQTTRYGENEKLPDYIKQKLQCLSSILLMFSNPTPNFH
B5: 14-3-3 protein sigma (Homo sapiens), P31947 (parent)
chain: B1 chain
partner: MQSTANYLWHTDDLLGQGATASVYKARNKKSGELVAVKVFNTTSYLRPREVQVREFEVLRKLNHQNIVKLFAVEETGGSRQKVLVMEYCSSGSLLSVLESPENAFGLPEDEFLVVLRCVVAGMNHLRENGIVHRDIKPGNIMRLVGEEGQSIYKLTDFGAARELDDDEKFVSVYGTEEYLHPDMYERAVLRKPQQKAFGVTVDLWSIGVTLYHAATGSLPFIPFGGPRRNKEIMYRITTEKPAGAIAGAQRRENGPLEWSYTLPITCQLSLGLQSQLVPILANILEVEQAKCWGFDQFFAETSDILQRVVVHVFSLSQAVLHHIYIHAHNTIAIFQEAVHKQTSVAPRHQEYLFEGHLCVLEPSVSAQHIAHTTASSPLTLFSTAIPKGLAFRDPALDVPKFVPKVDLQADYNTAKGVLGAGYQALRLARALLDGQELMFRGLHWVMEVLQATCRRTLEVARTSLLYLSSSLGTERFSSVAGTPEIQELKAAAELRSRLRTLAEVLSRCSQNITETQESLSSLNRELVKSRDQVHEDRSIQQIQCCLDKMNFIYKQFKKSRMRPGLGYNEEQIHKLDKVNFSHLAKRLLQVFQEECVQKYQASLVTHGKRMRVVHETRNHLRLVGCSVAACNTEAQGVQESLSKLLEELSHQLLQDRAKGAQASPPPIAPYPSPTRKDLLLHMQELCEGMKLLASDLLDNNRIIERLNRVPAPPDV
B6: 14-3-3 protein sigma (Homo sapiens), P31947 (parent)
chain: B1 chain
partner: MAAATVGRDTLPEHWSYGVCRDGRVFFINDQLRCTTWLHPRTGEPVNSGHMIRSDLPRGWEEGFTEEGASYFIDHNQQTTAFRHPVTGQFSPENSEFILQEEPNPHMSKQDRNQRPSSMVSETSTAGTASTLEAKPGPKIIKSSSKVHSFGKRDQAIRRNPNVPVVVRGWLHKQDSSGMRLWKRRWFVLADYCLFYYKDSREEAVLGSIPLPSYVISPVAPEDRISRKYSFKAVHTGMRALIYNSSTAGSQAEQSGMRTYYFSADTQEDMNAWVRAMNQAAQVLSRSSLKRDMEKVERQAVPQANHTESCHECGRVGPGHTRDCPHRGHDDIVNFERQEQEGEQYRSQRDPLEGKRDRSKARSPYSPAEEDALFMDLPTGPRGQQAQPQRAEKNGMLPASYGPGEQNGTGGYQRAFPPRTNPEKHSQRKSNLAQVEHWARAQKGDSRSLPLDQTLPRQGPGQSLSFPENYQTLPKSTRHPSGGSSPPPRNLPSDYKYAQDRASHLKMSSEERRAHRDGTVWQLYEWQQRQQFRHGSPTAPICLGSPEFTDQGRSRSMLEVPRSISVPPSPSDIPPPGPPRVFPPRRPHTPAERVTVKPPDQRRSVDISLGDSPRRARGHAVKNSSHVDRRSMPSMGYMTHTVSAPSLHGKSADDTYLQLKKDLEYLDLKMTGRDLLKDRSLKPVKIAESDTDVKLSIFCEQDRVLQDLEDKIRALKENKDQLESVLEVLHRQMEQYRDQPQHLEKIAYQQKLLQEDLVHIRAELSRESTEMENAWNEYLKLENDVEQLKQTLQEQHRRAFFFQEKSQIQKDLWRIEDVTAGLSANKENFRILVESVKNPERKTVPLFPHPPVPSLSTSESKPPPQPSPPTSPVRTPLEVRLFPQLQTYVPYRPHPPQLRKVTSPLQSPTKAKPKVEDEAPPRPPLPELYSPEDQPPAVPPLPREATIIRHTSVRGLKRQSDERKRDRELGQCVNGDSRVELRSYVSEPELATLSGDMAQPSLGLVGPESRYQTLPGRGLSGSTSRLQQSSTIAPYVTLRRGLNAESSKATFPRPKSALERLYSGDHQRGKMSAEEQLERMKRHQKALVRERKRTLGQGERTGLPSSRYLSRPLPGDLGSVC
B7: 14-3-3 protein sigma (Homo sapiens), P31947 (parent)
chain: B1 chain
partner: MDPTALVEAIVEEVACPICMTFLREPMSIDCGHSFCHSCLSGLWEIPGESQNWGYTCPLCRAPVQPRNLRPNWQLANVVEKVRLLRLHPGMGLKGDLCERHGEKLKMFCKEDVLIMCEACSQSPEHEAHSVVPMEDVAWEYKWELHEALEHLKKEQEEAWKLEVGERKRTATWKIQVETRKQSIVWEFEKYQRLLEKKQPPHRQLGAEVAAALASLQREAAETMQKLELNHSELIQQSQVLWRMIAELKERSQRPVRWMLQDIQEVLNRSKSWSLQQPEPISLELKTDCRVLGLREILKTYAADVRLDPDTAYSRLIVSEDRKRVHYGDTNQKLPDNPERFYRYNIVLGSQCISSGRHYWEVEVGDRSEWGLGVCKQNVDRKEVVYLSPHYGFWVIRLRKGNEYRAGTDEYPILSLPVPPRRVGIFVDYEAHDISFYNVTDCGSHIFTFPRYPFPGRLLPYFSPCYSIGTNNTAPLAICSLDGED
B8: 14-3-3 protein sigma (Homo sapiens), P31947 (parent)
chain: B1 chain
partner: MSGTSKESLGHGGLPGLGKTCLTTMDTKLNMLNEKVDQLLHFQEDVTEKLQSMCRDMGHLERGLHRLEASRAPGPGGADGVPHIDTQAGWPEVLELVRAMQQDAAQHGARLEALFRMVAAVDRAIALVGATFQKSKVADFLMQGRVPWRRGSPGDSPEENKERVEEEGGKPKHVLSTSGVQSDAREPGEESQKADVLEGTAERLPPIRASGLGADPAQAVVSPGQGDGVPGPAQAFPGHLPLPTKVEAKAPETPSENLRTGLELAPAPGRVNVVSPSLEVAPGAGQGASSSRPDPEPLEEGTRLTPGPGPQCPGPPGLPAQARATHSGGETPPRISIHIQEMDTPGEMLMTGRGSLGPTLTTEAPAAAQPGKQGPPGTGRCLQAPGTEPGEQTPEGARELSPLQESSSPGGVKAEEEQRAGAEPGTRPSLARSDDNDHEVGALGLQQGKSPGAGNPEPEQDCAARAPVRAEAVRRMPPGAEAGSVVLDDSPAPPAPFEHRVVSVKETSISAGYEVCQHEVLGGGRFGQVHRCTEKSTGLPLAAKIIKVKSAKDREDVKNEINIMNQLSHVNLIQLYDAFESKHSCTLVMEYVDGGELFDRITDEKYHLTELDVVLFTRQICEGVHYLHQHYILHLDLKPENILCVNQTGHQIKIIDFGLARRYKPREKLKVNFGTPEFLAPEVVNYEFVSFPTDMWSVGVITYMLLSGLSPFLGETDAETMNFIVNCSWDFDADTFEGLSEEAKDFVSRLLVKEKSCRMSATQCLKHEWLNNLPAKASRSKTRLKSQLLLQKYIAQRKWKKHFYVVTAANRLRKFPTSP

Variants of: B1
Conditions: with snrk_human SNRK

Variant | effect of a mutation on the interaction
K49E;R56E;V178D | decreasing interaction strength

Variants of: B2
Conditions: with dyrk4_human DYRK4, Q9NR20

Variant | effect of a mutation on the interaction
K49E;R56E;V178D | decreasing interaction strength

Variants of: B3
Conditions: with bmx_human BMX

Variant | effect of a mutation on the interaction
K49E;R56E;V178D | decreasing interaction strength

Variants of: B4
Conditions: with plk4_human PLK4, O00444

Variant | effect of a mutation on the interaction
K49E;R56E;V178D | decreasing interaction strength

Variants of: B5
Conditions: with ikke_human IKBKE

Variant | effect of a mutation on the interaction
K49E;R56E;V178D | decreasing interaction strength

Variants of: B6
Conditions: with pkha7_human PLEKHA7, Q6IQ23

Variant | effect of a mutation on the interaction
K49E;R56E;V178D | decreasing interaction strength

Variants of: B7
Conditions: with tri68_human TRIM68, Q6AZZ1

Variant | effect of a mutation on the interaction
K49E;R56E;V178D | decreasing interaction strength

Variants of: B8
Conditions: with mylk3_human MYLK3, Q32MK0

Variant | effect of a mutation on the interaction
K49E;R56E;V178D | decreasing interaction strength

Reference: IntAct's records for PubMed 36931259
